Key:
[1] = biological target: T1, hu-CD96 isoform 2 on CHO cells (human, UniProt P40200 22-585); assay: FACS, CD155-Fc-FLAG 10 nM, Ab 0.0064 nM
T1 construct: also called CHO-CD96 (isoform 2); CD96-CHOs
T1 sequence: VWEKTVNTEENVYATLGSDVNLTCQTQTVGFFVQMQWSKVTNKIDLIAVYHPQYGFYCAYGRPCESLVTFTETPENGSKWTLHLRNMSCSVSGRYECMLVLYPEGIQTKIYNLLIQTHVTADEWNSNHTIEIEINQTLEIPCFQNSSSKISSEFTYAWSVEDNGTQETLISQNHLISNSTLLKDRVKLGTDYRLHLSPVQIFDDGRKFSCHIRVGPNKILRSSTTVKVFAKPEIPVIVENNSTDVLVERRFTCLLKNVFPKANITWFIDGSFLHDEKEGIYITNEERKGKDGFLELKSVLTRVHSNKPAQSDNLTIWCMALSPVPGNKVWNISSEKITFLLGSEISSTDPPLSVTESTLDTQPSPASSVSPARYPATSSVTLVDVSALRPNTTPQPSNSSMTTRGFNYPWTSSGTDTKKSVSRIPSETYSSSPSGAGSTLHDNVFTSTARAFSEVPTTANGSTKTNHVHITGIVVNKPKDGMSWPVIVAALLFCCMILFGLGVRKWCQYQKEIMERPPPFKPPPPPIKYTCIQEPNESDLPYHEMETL
Method: (§1) CHO cells stably expressing isoform 2 of hu-CD96 (Origene, catalog #RC221005) were incubated with anti-CD96 antibodies for 20 minutes at 4° C. The cells were washed, and then incubated with 10 nM human CD155-Fc-FLAG for 30 minutes at 4° C. Cells were washed, and then human CD155-Fc-FLAG binding was detected by incubation with anti-FLAG-APC (Columbia Biosciences, catalog #D3-1718-1MG) for 20 minutes at 4° C. Cell binding was analyzed by flow cytometry with a CytoFLEX (Beckman Coulter). CD155 binding is represented as median fluorescence intensity (MedFI).
(§2) As shown in Table 20 (below), the anti-CD96 antibodies, mAb1.v7.NGS8, mAb1.v7.NGS9, mAb1.v7.NGS10, mAb1.v7.NGS11, and h10G1 inhibited soluble hu-CD155 binding to CD96-expressing CHO cells dose-dependently and potently. The antibody NK92.39 (Fuchs et al., 2004; Biolegend catalog #338405) inhibited receptor binding similarly.

[2] = biological target: T1, hu-CD96 isoform 2 on CHO cells; assay: FACS, CD155-Fc-FLAG 10 nM, Ab 0.8 nM
Method: as §1, §2

[3] = biological target: T1, hu-CD96 isoform 2 on CHO cells; assay: FACS, CD155-Fc-FLAG 10 nM, Ab 0.032 nM
Method: as §1, §2

[4] = biological target: T2, hu-CD96 Fc (human, biotinylated in Table 16); assay: SPR 37C, biotin-CD96-Fc captured, IgG analyte
T2 construct: also called biotinylated hu-CD96-Fc
Method: Briefly, a 1:4 dilution of Biotin CAPture Reagent (GE Healthcare) into HBS-EP buffer (0.01 M HEPES pH 7.4, 0.15 M NaCl, 3 mM EDTA, 0.005% Surfactant P20) was applied to the chip at 2 µL/min flow rate. For the kinetics measurements, 20 nM biotinylated hu-CD96-Fc and cy-CD96-Fc was captured at 10 µL/min to achieve ~50 response units in the second flow cell (FC2). FC1 was kept as a reference. Next, 4-fold serial dilutions of IgG in HBS-P buffer (0.01 M HEPES pH 7.4, 0.15 M NaCl, 0.005% surfactant P20) from low (3.125 nM) to high (200 nM) concentration were injected (flow rate: 10 µL/min) at 37° C. The sensorgram was recorded and subject to reference and buffer subtraction before evaluating by BIACORE® 8K Evaluation Software (version 1.1.1.7442). Association rates ($kon$) and dissociation rates ($koff$) were calculated using a simple one-to-one Langmuir binding model. The equilibrium dissociation constant (K_D) value was calculated as the ratio of $koff/kon$.

[5] = biological target: T1, hu-CD96 isoform 2 on CHO cells; assay: FACS, CD155-Fc-FLAG 10 nM, Ab 100 nM
Method: as §1, §2

[6] = biological target: T1, hu-CD96 isoform 2 on CHO cells; assay: FACS, blocks 10 nM CD155-Fc-FLAG binding to CD96-CHO
Method: as §1, §2

[7] = biological target: T1, hu-CD96 isoform 2 on CHO cells; assay: FACS, CD155-Fc-FLAG 10 nM, Ab 20 nM
Method: as §1, §2

[8] = biological target: T1, hu-CD96 isoform 2 on CHO cells; assay: FACS, CD155-Fc-FLAG 10 nM, Ab 0.16 nM
Method: as §1, §2

[9] = biological target: T1, hu-CD96 isoform 2 on CHO cells; assay: FACS, CD155-Fc-FLAG 10 nM, Ab 4 nM
Method: as §1, §2

[10] = biological target: T3, recombinant hu-CD96 (M1-M503-polyHis) (human, UniProt P40200 22-519); assay: ELISA, blocks hu-CD96-his binding to coated CD155-hFc
T3 construct: also called hu-CD96-his
T3 sequence: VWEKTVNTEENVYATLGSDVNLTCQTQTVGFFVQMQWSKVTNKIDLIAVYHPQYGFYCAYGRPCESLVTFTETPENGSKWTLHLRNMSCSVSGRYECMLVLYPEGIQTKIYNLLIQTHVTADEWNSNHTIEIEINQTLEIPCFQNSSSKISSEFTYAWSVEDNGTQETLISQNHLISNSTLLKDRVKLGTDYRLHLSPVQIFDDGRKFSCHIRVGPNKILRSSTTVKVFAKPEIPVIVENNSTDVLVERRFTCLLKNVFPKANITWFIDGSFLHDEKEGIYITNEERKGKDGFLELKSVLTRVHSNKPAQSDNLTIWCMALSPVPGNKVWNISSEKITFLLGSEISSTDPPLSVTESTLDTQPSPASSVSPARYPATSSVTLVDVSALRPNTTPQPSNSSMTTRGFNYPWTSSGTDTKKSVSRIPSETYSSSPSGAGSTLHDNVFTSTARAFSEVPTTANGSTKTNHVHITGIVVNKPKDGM
Method: (§3) CD96 binding of purified hybridoma antibodies: The hu-CD96 and cy-CD96 antigen binding ELISA was performed on the purified hybridoma antibodies. Briefly, 96-well MAXISORP® flat bottom plates (Thermo Fisher Scientific, Waltham, MA; Cat #439454) were coated overnight at 4° C. with 0.5 µg/mL of hu-CD96D1 D3-hFc and cynomolgus monkey CD96D1 D3-hFc in PBS. After removing the coating solution, unspecific binding was blocked by PBS containing 1% bovine serum albumin (blocking buffer) and incubation at room temperature for one hour. Plates were then washed three times with PBS and 0.05% TWEEN®-20 (wash buffer). Serial dilution of purified antibodies in PBS containing 0.5% BSA and 0.05% Tween 20 (ELISA buffer) was added to individual wells followed by incubation at room temperature for one hour with agitation. Plates were washed three times with wash buffer, then 100 µL/well of anti-mouse IgG-HRP (Thermo Fisher Scientific, Waltham, MA; Cat #626520) in ELISA buffer was added. […] Enzymatic color development was stopped with 50 µL/well of TMB stop solution (VWR/Avantor, Radnor, PA, USA; Cat #95059-200). Plates were analyzed with a SpectraMax i3X plate reader (Molecular Devices LLC, San Jose, CA, USA) at 450 nm.
CD155 receptor blocking of purified hybridoma antibodies: Human CD155 blocking ELISA was performed on purified hybridoma antibodies following the same protocol as described for CD96 (above), except that serial dilution of purified antibodies 50 µL/well (starting at 1 µM, 1:5 dilution) in assay buffer was added into the reaction.

[11] = biological target: T1, hu-CD96 isoform 2 on CHO cells; assay: FACS, Ab 0.016 nM
Method: (§4) Isoform 1 of hu-CD96 (Origene, catalog #RC213845) was transiently expressed in HEK293T cells following standard lipofectamine or Fugene transfection protocol. […] Cells were washed, and binding was detected by incubation with anti-mouse IgG-FITC (Biolegend, catalog #406001) for 20 minutes at 4° C. Cell binding was analyzed by flow cytometry with a CytoFLEX (Beckman Coulter). Binding curves were calculated as a percentage of cells positive for bound antibody.
(§5) Isoform 2 of hu-CD96 (DNA construct: Origene, catalog #RC221005) was expressed on a single-cell-clone-derived CHO stable cell line. Binding of the anti-CD96 antibodies to the CHO cells were determined as described above with isoform 1 of hu-CD96.

[12] = biological target: T1, hu-CD96 isoform 2 on CHO cells; assay: FACS, Ab 2 nM
Method: as §4, §5

[13] = biological target: hu-CD96D1 D3-hFc (human); assay: ELISA, coated CD96D1D3-hFc
Method: as §3

[14] = biological target: T4, cynomolgus monkey CD96D1 D3-hFc (cynomolgus monkey); assay: ELISA, coated CD96D1D3-hFc
T4 construct: also called cy-CD96D1 D3
T4 sequence (chain, as listed by the source limits assumed): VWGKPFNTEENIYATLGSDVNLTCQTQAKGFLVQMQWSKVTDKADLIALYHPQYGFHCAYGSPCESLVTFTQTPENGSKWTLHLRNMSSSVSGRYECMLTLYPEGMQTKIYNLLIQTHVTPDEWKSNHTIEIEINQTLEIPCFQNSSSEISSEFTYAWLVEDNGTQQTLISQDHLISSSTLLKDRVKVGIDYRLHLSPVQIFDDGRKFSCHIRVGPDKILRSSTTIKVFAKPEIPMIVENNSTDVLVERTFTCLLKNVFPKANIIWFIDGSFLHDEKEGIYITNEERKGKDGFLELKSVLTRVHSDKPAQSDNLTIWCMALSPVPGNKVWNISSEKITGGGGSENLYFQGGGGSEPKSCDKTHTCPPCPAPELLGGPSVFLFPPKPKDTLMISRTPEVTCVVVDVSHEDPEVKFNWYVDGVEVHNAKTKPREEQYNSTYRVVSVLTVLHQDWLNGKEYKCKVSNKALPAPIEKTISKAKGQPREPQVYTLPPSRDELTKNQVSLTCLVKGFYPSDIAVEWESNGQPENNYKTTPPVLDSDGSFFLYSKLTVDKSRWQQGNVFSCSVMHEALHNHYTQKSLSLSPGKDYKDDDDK
Method: as §3

[15] = biological target: T1, hu-CD96 isoform 2 on CHO cells; assay: FACS, Ab 0.4 nM
Method: as §4, §5

[16] = biological target: T1, hu-CD96 isoform 2 on CHO cells; assay: FACS, Ab 10 nM
Method: as §4, §5

[17] = biological target: T1, hu-CD96 isoform 2 on CHO cells; assay: FACS, Ab 0.0032 nM
Method: as §4, §5

[18] = biological target: T1, hu-CD96 isoform 2 on CHO cells; assay: FACS, Ab 50 nM
Method: as §4, §5

[19] = biological target: T1, hu-CD96 isoform 2 on CHO cells; assay: FACS, Ab 0.08 nM
Method: as §4, §5

[20] = biological target: T1, hu-CD96 isoform 2 on CHO cells; assay: FACS, % positive curve
Method: as §4, §5

B1: mAb1.v7.NGS8 IgG (antibody, V domains shown)
VH: EVQLVQSGAEVKKPGASVKVSCKASGFTFTNNFMHWVRQAPGQGLEWIGMIHANSGITNINEKFKNRVTMTTDTSTSTAYMELRSLRSEDTAVYYCRSDGIYEGYFDYWGQGTLVTVSS
VL: DIQLTQSPSSLSASVGDRVTITCKASQNVGTAIVWYQQKPGKAPKVLIYSASTRYTGVPSRFSGSGSGTDFTLTISSLQPEDFATYYCQQYSSSPLTFGQGTKVEIKG
notes: human IgG1 N297G
- CD155-Fc binding (MedFI) [1]: 49200 MedFI
- CD155-Fc binding (MedFI) [2]: 23600 MedFI
- CD155-Fc binding (MedFI) [3]: 47800 MedFI
- Kd [4]: 0.15 nM
- koff [4]: 1.99e-05 s⁻¹
- kon [4]: 129000 M⁻¹ s⁻¹
- CD155-Fc binding (MedFI) [5]: 4180 MedFI
- IC50 [6]: 0.76 nM
- CD155-Fc binding (MedFI) [7]: 4290 MedFI
- CD155-Fc binding (MedFI) [8]: 52900 MedFI
- CD155-Fc binding (MedFI) [9]: 4960 MedFI

B2: 1G8, purified hybridoma antibody (antibody, V domains shown)
VH: QVQLQQSGPELLKPGASVKISCKASGYTFTDYYINWVKQRPGQGLEWIGWIFPGTEGIYYNEKFKGKATLTVDKSSTTAYMLLSSLTSEDSAVYFCAREGDYRYYSPLGYWGQGTLVTVSA
VL: DIQMNQSPSSLSASLGDTITITCRVSQDISFWLSWYQQKPGNIPKLLIYKASNLHTGVPPRFSGSGSGTDFTLTISSLQPEDIAAYYCLQSQSYPYTFGGGTKLEIK
notes: murine hybridoma IgG
- IC50 [10]: 0.883 nM
- % positive [11]: 0%
- % positive [12]: 26.2%
- EC50 [13]: 0.072 nM
- binding result [14]: no binding
- % positive [15]: 7.1%
- % positive [16]: 35.3%
- % positive [17]: 0.1%
- % positive [18]: 34.8%
- % positive [19]: 0.2%
- EC50 [20]: 1.04 nM
